Experiment: soluble on expression in E. coli; label from the status in PepcDB or PDB records

Soluble on expression in E. coli, not soluble:
MGSDKIHHHHHHMPINSYENYVLSWRPVKERLTRPYYQSLVQQLEADILSGALQKNVKLPSQRELADYLDLNFTTIGQAYKHAMEKGLLYTNIGCGTFVSPNAFHSITISTNQVADHLIDLGLVSSFDMCNQRILPFIESVSKNAALNSLLNYRDPLGTHFQRATAAEWLQTQGVRTNAEEVAIVSGVQNGLAVTLAAAFSPGQRIAVDRYTYSNFIELAQLYHLEIVPIGYDSEGMDPEHLLQECKKKKIHGIFLMPACNNPIGFQMSSARRMTLAEIIQQEHLWVIEDDIHSFLTTYAQQAVLPTFQELLPQQTIYLAGMTKFVCTGLRIAYLVFPPLLRQEIERAIFNINVKTSGFDAEIVTQVLRSPVAKELVIEKLALTKQANDLFDTIFGLARPSNPLPYYRTIPLSTEKTAPQIEQEFLQNGVRLFHSSRFTVQNQPDAFLRISLASNQLEVLAKGLTIIQELLPTLNEKKGHSL
MGSDKIHHHHHHMPKLASIAPSMESTRPLLQPITVVNRQLQAHCHVMSHSHLWGQFVYASQGVLAVNTPAARYLVTPEQGVWVNSNISHSVTAITEVRLTSFYLDESQCQALPEQSCVLNVAPFLHALIQEARLIPSDFDWQGPRGRLLRLIRDWLSEAKNAPFHLPYSSHPKLMQLFGELQNNPANQDNIATWGQRLGASSRTLSRLIKAETGLSYRHWRQRLNLQLSLSLLAQGHSINHIADSLGYASPSAFIHMFKQQTGDSPARYRK
MGSDKIHHHHHHMPKVLHVADVHLGARPYGLEERRDDIFRSFEFVVETALKDRPDAVLIAGDLFDKPKLPLRDVKQAVELVRALTDAGIPVLAAHGEHDTPSVRDETLLSLMEASLDGFKAPLYRSGMRPGDFVVDLGSLKVAVVPFFKVPLEERRRLTLRFLREFDQISRTSSGTLVLLAHMSLDAEMQFDAVASPSDLPSGAKYAALGHLHAPRIRLDAPTPYAYPGVLDPLKVEEINTPGSPLYVDLSGDAPIIEKVKVPRRPQYRIEVDIGDGGSIYNAVNRGLRRVLANVRASREDWLKPLIHVIIKSDKPISKARVIAEARKAAGGADVLLKIHWKIVAGGEHAGTSPGLQGEGPLDLAKIAAEYYKIPLNAASTILHDLAEAAAEKDELRVREILETLATTVSQDTWKRILYMR
MGSDKIHHHHHHMPQLQTNNTALSTQQSAEMKTTRLLKVLKIMFPRENWTSQKLTSEVNVKGSGVYRFEHGTIAHLGQPGGPRTEHLWEMTVDRVWAKALIEAHNQAQESEALVRTQAEVYPKDWYGLRLRSPAEAAIAEALQTKGVLFFVNTGCRLHNHSKQYETREVDFLVFHQGKVRILEVDGITYHQNPLADYKRDRLFDREGIRTSRFSAQECFENPNGVVEEFLGLFKF
MGSDKIHHHHHHMPRYQHIARQLKTAIEQGELAPGTRLPSSRTWAQELGVSRATVENAYGELVAQGWLERRGQAGTFVSNALRFETAPPIPAVFAGESPEPKPFQMGLPALDLFPREKWARVMGRRLRTQTCFDLALGDVCGEAILRQAIVDYLRVSRSIECLPEQVFITSGYADSMRLILRTLSVPGDSMWVEDPGFPLIRPVITQEGITLAPIPVDADGLNVAAGMRDCPQGRFALVTPAHQSPLGVALSLTRRRQLLAWAANVQAWIIEDDYDSEFRYHGKPLPPLKSLDAPQRVIYAGTFSKSLFPALRTAWLVVPIKQIEHFRQQASLMPCSVPLLWQHTLADFIRDGHFWRHLKKMRQHYAQRRLWIEEALAEQGFVVTLQKGGIQLVIEVEGDDKAQVAKANQAGLAVQALSRWRVVSSGKGGILLSFTNITSAGMAKQVACQLRQAIQ
MGSDKIHHHHHHMPSETRLPNFIRTLIFALSFIFLNACSEQTAQTVTLQGETMGTTYTVKYLSNNRDKLPSPAEIQKRIDDALKEVNRQMSTYQPDSEISRFNQHTAGKPLRISSDFAHVTAEAVHLNRLTHGALDVTVGPLVNLWGFGPDKSVTREPSPEQIKQAASYTGIDKIILKQGKDYASLSKTHPKAYLDLSSIAKGFGVDKVAGELEKYGIQNYLVEIGGELHGKGKNARGEPWRIGIEQPNIVQGGNTQIIVPLNNRSLATSGDYRIFHVDKSGKRLSHIINPNNKRPISHNLASISVVADSAMTADGLSTGLFVLGETEALKLAEREKLAVFLIVRDKGGYRTAMSSEFEKLLR
MGSDKIHHHHHHMPSVKIGIIGAGSAVFSLRLVSDLCKTPGLSGSTVTLMDIDEERLDAILTIAKKYVEEVGADLKFEKTMNLDDVIIDADFVINTAMVGGHTYLEKVRQIGEKYGYYRGIDAQEFNMVSDYYTFSNYNQLKYFVDIARKIEKLSPKAWYLQAANPIFEGTTLVTRTVPIKAVGFCHGHYGVMEIVEKLGLEEEKVDWQVAGVNHGIWLNRFRYNGGNAYPLLDKWIEEKSKDWKPENPFNDQLSPAAIDMYRFYGVMPIGDTVRNSSWRYHRDLETKKKWYGEPWGGADSEIGWKWYQDTLGKVTEITKKVAKFIKENPSVRLSDLGSVLGKDLSEKQFVLEVEKILDPERKSGEQHIPFIDALLNDNKARFVVNIPNKGIIHGIDDDVVVEVPALVDKNGIHPEKIEPPLPDRVVKYYLRPRIMRMEMALEAFLTGDIRIIKELLYRDPRTKSDEQVEKVIEEILALPENEEMRKHYLKR
MGSDKIHHHHHHMPTIAEKLKSRESDLTRAERQLSAAILDNYPIPGLGSITELAELAEVSTPTVARMVQKLGFSGYPEFQHALREELREIISNPVEKRAEQAPELPEGHMLNRYAVAVYDNIRATLENVNLEEFDTLCALLADTNSRVHIAGGRLSGTLAQNFYLHLQMIRRDVFMIPPRASWTHSVLDLLPGDTLILFDIRRYENATLLLAEMAHERGVKVVLFTDQWRSPIQKEATFTFAARIAVPSAWDSGVALLLLIESMIAKIQEDHWDTVKARNDELEAAFDRTRLFRKFT
MGSDKIHHHHHHMPTLIERIHQVELGNLTQLDQLCHQLGLPYFLMGGSLLGAIRHQGFIPWDDDVDVGLLRADYDQLLAAAPTHLADSPYFLQTPTSDENYGLSYAKLLDRRTYIEEKRNVNNARKGIFIDIFPLDRIPQDTSAQQKQSTKFQLLNTRILLQLRYHLVDNPLRKLQGPLSSEQLTSVNALKAERQAVMTQYQAEITLPQVKNLSSQYAYAKEVFTVAELSDLTTVPFEHLQVQVPRNYATILTRMYGDYLALPPENQRTKKHLERVIMDNQVFTD
MGSDKIHHHHHHMPVNIKQLAQEFDKKEIGITQGHRLCPGCGAPITVKFVMMIARHLGYEPVVGLATGCLEVSTSIYPYTAWSVPYIHNAFENVAATMSGVETAYKALKNKGKIPEDKKYAFIAFGGDGGTYDIGLQSLSGMLERGHKVLYVLYDNEGYMNTGNQRSGSTPPGSDTTTAPVGKKLPGKVQLKKNIVEIVAAHENVYAATASLSEPMDFFAKVEKALNFDGPSFLAVFSPCVRFWRVNDDKTVEISKLAVETKYWPLYEVERGVYRVTRKPRQFKPVEEFLKAQGRFRKLLSRPDAKEIVDELQEYVDRRWERLLTLEEVTKDKPIR
MGSDKIHHHHHHMPYFERDGYYIDRCPECRFVYVRNVPSDGTLAAFYSGYYGDVNEFVPVSRKRLSKRFSKSVENWWHARNLVRCAAGRRKLLEIGYGEGHLLMALKQTRRFELRGIDYATGPMAYMSANGIDVAQGSLFDQHYPDNRFEFIVGFHVLEHVQHLGEFMSEVRRVLAPAGRVYFVVPCVTHFSAVRRRQNWKHFGPPGHLWYFSVTAMRRFMTDQDFKVVSAHCISNRTHLTVLAEKTS
MGSDKIHHHHHHMQFADFWYIVALSNQLQPNKVLPRTVLGEWLAIFRGEDGQPVALRDRCLHRNSRLSSGKICNGALQCPYHGWVYDGVGNVIAVPAEGNDFKPSPQRRAKCYATKEQDGYVYVRLADTPSVDFEPFSMPHYGQTGWETVRVINRFANNVTNCAENFIDIPHTAFVHPGVFRTSRQQKLEMTVERWNGSVLVEYRNENSNLGWYSRFLNLQSAEIKHSDRFYMPNITSVEYKMARNRHLFITSQSIPETDNSTLVYTDVTYNYGIWNKLARPFVRWTAQHIIRQDVEILGIQGEAIAKYGTQFYNTPADTIHIFVESIMAAISRGEDPRLLPNQSVKVTFWV
MGSDKIHHHHHHMQFLYNKQAGEEFIQLQGENFNHLKVRRVKENSELNLRNLQDNFLYNYTITNLTRNSCTLKFLNKKSQNIKQSELNLALAIIDIKILEKTLPFLNELGVKKLHLVFTNFSQRNFKIDLERFEKIIISSCEQCGRNTKMDLIIHQSTQEFVQKFPNAIMVDFQGEQQSHFDEKELYFIGPEGGFNNDERLLFNRKISLKSSNILKSQTAIIAIASKILL
MGSDKIHHHHHHMQHHKVAIIGAGAAGIGMAITLKDFGITDVIILEKGTVGHSFKHWPKSTRTITPSFTSNGFGMPDMNAISMDTSPAFTFNEEHISGETYAEYLQVVANHYELNIFENTVVTNISADDAYYTIATTTETYHADYIFVATGDYNFPKKPFKYGIHYSEIEDFDNFNKGQYVVIGGNESGFDAAYQLAKNGSDIALYTSTTGLNDPDADPSVRLSPYTRQRLGNVIKQGARIEMNVHYTVKDIDFNNGQYHISFDSGQSVHTPHEPILATGFDATKNPIVQQLFVTTNQDIKLTTHDESTRYPNIFMIGATVENDNAKLCYIYKFRARFAVLAHLLTQREGLPAKQEVIENYQKNQMYLDDYSCCEVSCTC
MGSDKIHHHHHHMQIDKQQVGNRIHQLRIAAGLSMAKLASAIGLAGKSTINDWEKGRTLANADRLAKVAAYFDVSTNYLLYGSLTEYVTAVFQNGGLNHSEFNVLLWEYVDLTTTNPNILSSDLFSSASQTEQGVSDPTKIAAALITPTINNAIRQIVPEIVQHYQQTTTYPEPQAVIQAGCYVFRHRIQIIRRTFTGKYNRIVRLLDNVDLYEKLQPDDDLKAYLNQTTGPKTQVQNGYSLDEKYQRQMNKVITEFHQALNRINDAYQAELMACGQGQAHSAAD
MGSDKIHHHHHHMQIDQIETFLDLLETQSFNRTADRLDVTQSTVSGRVKALEKALGERLFERSRSGTQPTTAALRFETHARVLRRAWADGQADVKPFGTAVMLRIGIQHDLIDNHVADWLAALRQALPECGFYVDGDYSTQMCRDLETGALDLGVVFTPRPSPDLYFESMGEVTYQMVSTAQTSLPQIDPTNYILPNYAPAFAQTHAALLPGLSLGSVSSGQAAAVRGLLIALGGTTYLPTEMVSALITEGIAHHVPGAPDITQPVFVAMHLRNRHRAGYRRMANVLRDRVGT
MGSDKIHHHHHHMQIDSSILGALRCFEAAGRLLSFTKAAESLNLTQSAVSQQIRHLEDRLGYVLFVRQPRSLKLTPQGEVLFETTTRALHDIQQTIQRLGMPNAPLQVNCLPSFALQWLMPRLTDFHREQPDVSVRLKAEFQALDRQSMDTEDIDVAVRYDPVRYSRLHADVLLDEYLIPVATPEYLAEHRELAEGTSLDGVVLLHDASPWVGAAEFVEWRTWLEAFHPTWMAHLEGPQFNLSSLAISAALNHQGVAMGRTALVYDEIRSGRLVNVFRQHVRAPARYMLLSRNPDDRRVTIFSAWLKAECARFDAMRMETLSRDR
MGSDKIHHHHHHMQISFISHEYPPVSGGGSTALHEYASGLATRGHAVQVVTVGTGAHDTVDTEDGVQVVRLAAGRKSLLAPSKAELIRSCAALRLKSMPHLRRHEPEVLVAFFAFPAGFLAAPLAAKLNIPLVVSLRGSDVPGFSAKRLGVFGPLLPYLFRRATRHAAAVVPNGRRLADMAAPYLHTGSRVQVIPNGVDTLRFAPQGAEHGSMGGPLRVLFVGQMIARKQCLVLAQALHEVAARGVPLQVSFAGSGPLEQDIRRIVSSLDPVVGVTFTGHVPRNAIADLYGAHDVLVHLSQAEGVSNVLMEALSSGLCLVAADTAVDAAIDGVPRQAPAEDGGIILLPVDCGPVVLGATLAGLACNRSLVEEQQRLARRTALKNSWQVRVGELEDLLTGSIAGCQAS

Reference: the DeepSol protein solubility set
